The values below come from US12077763B2, “RNA-based control of powdery mildew” (Greenlight Biosciences, Inc., priority 2021, dated 2024).

This series has as its system E. necator. Briefly: Leaf disc assay, dry inoculum (settling tower), decrease in disease severity / hyphal growth (Example 2). To be noted: decrease in disease severity (hyphal growth) relative to untreated control, value ± SE; for % decrease =/− SE TP1: time point 1 (untreated control hyphal growth ≥50%); for % decrease =/− SE TP2: time point 2.

B1: GS3622 (nucleic acid)
sense: AUGAAGUGCAGGAUUUUUCUCUAUAAGUUUCUUACGUUGUAGCGCCGAAGCUUCUCUAAGUUUAAUCUCUGAUGGAGAUAAAACGUUAUAUAUAGGCGUACCAACAGCAAUUGUCCCCUCUUUAAGUAGAUAUAACUUUCGCUUAUCUUUGUCUCGGUCAGUGCGGAAGUUUGUCCCAGCUUCUGUAAGUUUUACAGCUUUUUCUCGAUUAACUGCUCUUGACACUUGAAGUACGCGACCUUCUAUUGUGUAUAAGCCAUUCUUAUCAGCAGUUUCAUCCUCUAAAAUAGAGUUUUUAGCUUUAACAGCGUUUGCACCACUUUUGAAGGUACGAGGUGCACCAUGGUAACAAGAGUCCGCAUCUUCUUGUCUAUAGAAGCAAACAAAGCCAGUGCCUUUA
antisense: UAAAGGCACUGGCUUUGUUUGCUUCUAUAGACAAGAAGAUGCGGACUCUUGUUACCAUGGUGCACCUCGUACCUUCAAAAGUGGUGCAAACGCUGUUAAAGCUAAAAACUCUAUUUUAGAGGAUGAAACUGCUGAUAAGAAUGGCUUAUACACAAUAGAAGGUCGCGUACUUCAAGUGUCAAGAGCAGUUAAUCGAGAAAAAGCUGUAAAACUUACAGAAGCUGGGACAAACUUCCGCACUGACCGAGACAAAGAUAAGCGAAAGUUAUAUCUACUUAAAGAGGGGACAAUUGCUGUUGGUACGCCUAUAUAUAACGUUUUAUCUCCAUCAGAGAUUAAACUUAGAGAAGCUUCGGCGCUACAACGUAAGAAACUUAUAGAGAAAAAUCCUGCACUUCAU
Consider B1, for which the “% decrease =/− SE TP1” value amounted to 17 ± 4%.

B2: GS3626 (nucleic acid)
sense: GCAGCUUUGUAACGUACCUCUCGUCCUGUUUGGUCUCCUCUGCUUUGGACUAGUUUCAACUGCUCCAGCACCAAACUCACCUUGGCAUCUACGAAGCCGACAGGAAGGUGGUGGCUACUAUGGCCAACCAUCGAAUGGUGAUGGAAGUGUGUAUCCACCUUCAUCUGGUACAGGUGGCUUUCUAUCGCCAACUGCUACGAGCGGUUAUCCGUCUGCAACUGGAACUGGCGGCUAUUCAUCUCCAUCGGGCACCGGUGGCUACCCGUCUGCAACAGGUACAGGUGGUUACGCAUCGCCAACAGGGACCAGUUACCCUACACCUACUGGAGGUUACUCUGAAGAGCCCUAC
antisense: GUAGGGCUCUUCAGAGUAACCUCCAGUAGGUGUAGGGUAACUGGUCCCUGUUGGCGAUGCGUAACCACCUGUACCUGUUGCAGACGGGUAGCCACCGGUGCCCGAUGGAGAUGAAUAGCCGCCAGUUCCAGUUGCAGACGGAUAACCGCUCGUAGCAGUUGGCGAUAGAAAGCCACCUGUACCAGAUGAAGGUGGAUACACACUUCCAUCACCAUUCGAUGGUUGGCCAUAGUAGCCACCACCUUCCUGUCGGCUUCGUAGAUGCCAAGGUGAGUUUGGUGCUGGAGCAGUUGAAACUAGUCCAAAGCAGAGGAGACCAAACAGGACGAGAGGUACGUUACAAAGCUGC
In the case of B2, the “% decrease =/− SE TP1” value is reported as 3 ± 7% and the “% decrease =/− SE TP2” value is listed as 26 ± 7%.

B3: GS3625 (nucleic acid)
sense: GUUUGCCUUUCCAAAUAUCCAUCAUGCAGCUUUGUAACGUACCUCUCGUCCUGUUUGGUCUCCUCUGCUUUGGACUAGUUUCAACUGCUCCAGCACCAAACUCACCUUGGCAUCUACGAAGCCGACAGGAAGGUGGUGGCUACUAUGGCCAACCAUCGAAUGGUGAUGGAAGUGUGUAUCCACCUUCAUCUGGUACAGGUGGCUUUCUAUCGCCAACUGCUACGAGCGGUUAUCCGUCUGCAACUGGAACUGGCGGCUAUUCAUCUCCAUCGGGCACCGGUGGCUACCCGUCUGCAACAGGUACAGGUGGUUACGCAUCGCCAACAGGGACCAGUUACCCUACACCUACUGGAGGUUACUCUGAAGAGCCCUACCACUAUAAAGGUGUCAAGCUAGGUC
antisense: GACCUAGCUUGACACCUUUAUAGUGGUAGGGCUCUUCAGAGUAACCUCCAGUAGGUGUAGGGUAACUGGUCCCUGUUGGCGAUGCGUAACCACCUGUACCUGUUGCAGACGGGUAGCCACCGGUGCCCGAUGGAGAUGAAUAGCCGCCAGUUCCAGUUGCAGACGGAUAACCGCUCGUAGCAGUUGGCGAUAGAAAGCCACCUGUACCAGAUGAAGGUGGAUACACACUUCCAUCACCAUUCGAUGGUUGGCCAUAGUAGCCACCACCUUCCUGUCGGCUUCGUAGAUGCCAAGGUGAGUUUGGUGCUGGAGCAGUUGAAACUAGUCCAAAGCAGAGGAGACCAAACAGGACGAGAGGUACGUUACAAAGCUGCAUGAUGGAUAUUUGGAAAGGCAAAC
On to B3, for which the “% decrease =/− SE TP1” value amounted to 1 ± 2% and the “% decrease =/− SE TP2” value amounted to 0 ± 3%.

B4: GS3619 (nucleic acid)
sense: UGUAGAUACAGAUUCGUAUGCGAGAAGUUGAAGUGCUGUAAAUGGUACAGUCAUGGAAAGAGUAGUUGGAUACGAGAUAUAGAAGGCUGUGAUGCCUUCAGUGCGAUAGAUAUAGCGGGCACAAUCACUCAGUGAUCUAUAAAUUUUGCGAGAGUUAUGCAUUUGCAUUCUUUGCUUUAUUACAUCAAAUGGGUUCAUUAAAGCAUCACUUGCAAUUGUUGCGCAUGCCCCACUUGUAACUAUGUAGCUUCAGUAAGUGCUCAAUAUCAAGGAUAAAUUGGCGAUGUAGUCAUAUAUGUCUGAUUCCUUAAUCAAAAUUCUUAAUACAGACCUGCUGCAAUAGGAUGAUG
antisense: CAUCAUCCUAUUGCAGCAGGUCUGUAUUAAGAAUUUUGAUUAAGGAAUCAGACAUAUAUGACUACAUCGCCAAUUUAUCCUUGAUAUUGAGCACUUACUGAAGCUACAUAGUUACAAGUGGGGCAUGCGCAACAAUUGCAAGUGAUGCUUUAAUGAACCCAUUUGAUGUAAUAAAGCAAAGAAUGCAAAUGCAUAACUCUCGCAAAAUUUAUAGAUCACUGAGUGAUUGUGCCCGCUAUAUCUAUCGCACUGAAGGCAUCACAGCCUUCUAUAUCUCGUAUCCAACUACUCUUUCCAUGACUGUACCAUUUACAGCACUUCAACUUCUCGCAUACGAAUCUGUAUCUACA
With B4, the “% decrease =/− SE TP1” value is 9 ± 2%.

B5: GS1813: dsRNA trigger SEQ ID NO 117; gene target hypothetical_protein_BC1G_11193 (nucleic acid)
DNA: CAATACTTATAGACATAATGTATATTGATAATAATCTAGTGTTGCATATCATTGATGAAGCAACTAATTTTCAGGCGGCTAGGTGGCTCAATAATATCTCTGCCAAACATACATGGGATGCCATACGTGCTTGTTGGATTGATACTTACGTTGGGCCCCCAGACTGCATAATAACAGATGCTGGTAAAAACTTCGTTAGCAAGGAATTTAATCAAAATGCATCATCAATGGAAATTTCGGTGAAAAACGTTCCTGTTGAAGCGCATTGGTCAATAGGAAAAATAGAGCGCTATCACTCTTGCATTCGTCGAGCTTATAAAATTATATCAGAAGAACTAGCTGGAACCGGAATCGGCAAAGAGTTTATGCTCCAGATGGCGGTAAAAGCCATAAACGACACAGCCGGACCTAATGGCTTAGTCCCAACTCTTTTAGTTTTTGGAGCTTATCCAAGAATGTCAAATTTAGACCCTCCTATGCCATCCATAATTCAACGGGCTGCTGCAATCAAAAAGGCGATGCTAGAGATAAGTAAATTACGCGCAAAGCTAACCGTGAATAGTGCTCTAAACCATCGAAACGGACCGAATACGAATA
Consider B5, for which the “% decrease =/− SE TP1” value is on record as 11 ± 5% and the “% decrease =/− SE TP2” value is given as 4 ± 5%.

B6: GS3627 (nucleic acid)
sense: CUGUUUGGUCUCCUCUGCUUUGGACUAGUUUCAACUGCUCCAGCACCAAACUCACCUUGGCAUCUACGAAGCCGACAGGAAGGUGGUGGCUACUAUGGCCAACCAUCGAAUGGUGAUGGAAGUGUGUAUCCACCUUCAUCUGGUACAGGUGGCUUUCUAUCGCCAACUGCUACGAGCGGUUAUCCGUCUGCAACUGGAACUGGCGGCUAUUCAUCUCCAUCGGGCACCGGUGGCUACCCGUCUGCAACAGGUACAGGUGGUUACGCAUCGCCAACAGGGACCAGUUACCCUACACCUAC
antisense: GUAGGUGUAGGGUAACUGGUCCCUGUUGGCGAUGCGUAACCACCUGUACCUGUUGCAGACGGGUAGCCACCGGUGCCCGAUGGAGAUGAAUAGCCGCCAGUUCCAGUUGCAGACGGAUAACCGCUCGUAGCAGUUGGCGAUAGAAAGCCACCUGUACCAGAUGAAGGUGGAUACACACUUCCAUCACCAUUCGAUGGUUGGCCAUAGUAGCCACCACCUUCCUGUCGGCUUCGUAGAUGCCAAGGUGAGUUUGGUGCUGGAGCAGUUGAAACUAGUCCAAAGCAGAGGAGACCAAACAG
On to B6, for which the “% decrease =/− SE TP1” value is 30 ± 3% and the “% decrease =/− SE TP2” value was 29 ± 6%.

B7: GS3620 (nucleic acid)
sense: AGUUGAAGUGCUGUAAAUGGUACAGUCAUGGAAAGAGUAGUUGGAUACGAGAUAUAGAAGGCUGUGAUGCCUUCAGUGCGAUAGAUAUAGCGGGCACAAUCACUCAGUGAUCUAUAAAUUUUGCGAGAGUUAUGCAUUUGCAUUCUUUGCUUUAUUACAUCAAAUGGGUUCAUUAAAGCAUCACUUGCAAUUGUUGCGCAUGCCCCACUUGUAACUAUGUAGCUUCAGUAAGUGCUCAAUAUCAAGGAUAAAUUGGCGAUGUAGUCAUAUAUGUCUGAUUCCUUAAUCAAAAUUCUUAAU
antisense: AUUAAGAAUUUUGAUUAAGGAAUCAGACAUAUAUGACUACAUCGCCAAUUUAUCCUUGAUAUUGAGCACUUACUGAAGCUACAUAGUUACAAGUGGGGCAUGCGCAACAAUUGCAAGUGAUGCUUUAAUGAACCCAUUUGAUGUAAUAAAGCAAAGAAUGCAAAUGCAUAACUCUCGCAAAAUUUAUAGAUCACUGAGUGAUUGUGCCCGCUAUAUCUAUCGCACUGAAGGCAUCACAGCCUUCUAUAUCUCGUAUCCAACUACUCUUUCCAUGACUGUACCAUUUACAGCACUUCAACU
Take B7: the “% decrease =/− SE TP1” value came out at 6 ± 8% and the “% decrease =/− SE TP2” value was found to be 8 ± 7%.

B8: GS3623 (nucleic acid)
sense: AGUUUCUUACGUUGUAGCGCCGAAGCUUCUCUAAGUUUAAUCUCUGAUGGAGAUAAAACGUUAUAUAUAGGCGUACCAACAGCAAUUGUCCCCUCUUUAAGUAGAUAUAACUUUCGCUUAUCUUUGUCUCGGUCAGUGCGGAAGUUUGUCCCAGCUUCUGUAAGUUUUACAGCUUUUUCUCGAUUAACUGCUCUUGACACUUGAAGUACGCGACCUUCUAUUGUGUAUAAGCCAUUCUUAUCAGCAGUUUCAUCCUCUAAAAUAGAGUUUUUAGCUUUAACAGCGUUUGCACCACUUUUGAAGGUACGAGGUGCACCAUGGUAACAAGAGUCCGCAUCUUCUUGUCUAUA
antisense: UAUAGACAAGAAGAUGCGGACUCUUGUUACCAUGGUGCACCUCGUACCUUCAAAAGUGGUGCAAACGCUGUUAAAGCUAAAAACUCUAUUUUAGAGGAUGAAACUGCUGAUAAGAAUGGCUUAUACACAAUAGAAGGUCGCGUACUUCAAGUGUCAAGAGCAGUUAAUCGAGAAAAAGCUGUAAAACUUACAGAAGCUGGGACAAACUUCCGCACUGACCGAGACAAAGAUAAGCGAAAGUUAUAUCUACUUAAAGAGGGGACAAUUGCUGUUGGUACGCCUAUAUAUAACGUUUUAUCUCCAUCAGAGAUUAAACUUAGAGAAGCUUCGGCGCUACAACGUAAGAAACU
B8: the “% decrease =/− SE TP1” value turned out to be 20 ± 3%.
